For one protein, Km, kcat and kcat/Km results are on record in paper PMC3430601, “Characterization of β-N-acetylhexosaminidase (LeHex20A), a member of glycoside hydrolase family 20, from Lentinula edodes (shiitake mushroom)” (AMB Express, 2012).

Substrate in data set [1]: CC(=O)N[C@H]1[C@H](Oc2ccc([N+](=O)[O-])cc2)O[C@H](CO)[C@@H](O)[C@@H]1O
As to the kind of experiment: purified protein. The format is biochemical, Lentinula edodes. Particulars: 20 mM sodium acetate pH 4.2, 37 °C, 15 min.

Substrate in data set [2]: CC(=O)N[C@H]1[C@H](Oc2ccc([N+](=O)[O-])cc2)O[C@H](CO)[C@H](O)[C@@H]1O
In words: purified protein. The format is biochemical, Lentinula edodes. Particulars: 20 mM sodium acetate pH 4.2, 37 °C, 15 min.

B1: LeHex20A (Lentinula edodes) (protein)
chain: LWPLPTDFSTGTAALTLASDFDIDISAIPNPPQDLLDAISRTKGYLQTDQLEALVVDRGASYNQSLQNASSLVSLVLSYDSGVAGEPTSISEEAIDDIDSRVEGYTLTVPEDGSAATIKANSTLGLFRGLTTFGQLWYDLNNTTYTIEAPIAITDSPVFPYRGFMLDTARNYFPVSDILRTLDAMSWVKMTTFHWHMVDSQSFPLEVPEFPELSLNGAYGPSLVYSTNDVQTIVSYANARGIDVLPEIDTPGHTAIIAQAYPEHVACPGATPWATYANEPPAGQLRFANANTTNFTASLISSVSARFPGKYFSTGGDELNTECYAIDESTQADLNTTGKTLEQALDTFTQTVQSVLEDSGKTPVVWEEMVLDFNLTLSNNTIVMVWISSADAAAVADKGFRLVQAPSDYFYLDCGAGGWVGANPSGNSWCDPFKTWQYAYSFDPVANLTDAQAKLVIGGEHLLWTEQSHASNLDSIVWPRAAASAELFWSGPGGNISEALPRLHDVAFRMTQRGVGAIALQPLWCALRPGVCDLTA
notes: native, purified from fruiting bodies; secreted mature form, 17-residue signal peptide predicted (ORF 553 aa, mature 536 aa); N-terminus LWPLPTDFSTGTAAL; 79 kDa on SDS-PAGE (58 kDa calculated, glycosylated); GH20
Regarding B1, in “purified protein [1]”, the Km – broadly, the concentration of substrate that gives half-maximal velocity – was 340 ± 10 µM; the kcat (as a rule, the number of substrate molecules converted per active site and unit of time at saturation) turned out to be 335 ± 10 s⁻¹; the kcat/Km (in general, the second-order rate constant that governs catalysis at low substrate concentration) stood at 983000 M⁻¹ s⁻¹. Moreover, in “purified protein [2]”, the Km stood at 430 ± 30 µM, the kcat came out at 177 ± 8 s⁻¹ and the kcat/Km was determined as 411000 M⁻¹ s⁻¹.
